Laboratory results published in doi:10.1101/2023.05.26.542399.

Biological target: Arabidopsis thaliana PAXX (AtPAXX), full length, untagged (Arabidopsis thaliana)
Assay: crystal structure

stoichiometry N: 2
Substance: Arabidopsis thaliana PAXX (AtPAXX), full length, untagged (natural protein)
